{
  "source": "patent US12552850B2",
  "about": "“GLP-1/GIP dual agonist, long-acting conjugate thereof, and pharmaceutical composition comprising same” (HANMI PHARM. CO., LTD., priority 2020, dated 2026)",
  "key": {"[1]": {"molecular_target": "T1, human GLP-1 receptor (Homo sapiens, UniProt P43220)", "T1 construct": "expressed in transfected cells; host or cells: Chinese hamster ovary (CHO)", "T1 sequence (P43220 24-463)": "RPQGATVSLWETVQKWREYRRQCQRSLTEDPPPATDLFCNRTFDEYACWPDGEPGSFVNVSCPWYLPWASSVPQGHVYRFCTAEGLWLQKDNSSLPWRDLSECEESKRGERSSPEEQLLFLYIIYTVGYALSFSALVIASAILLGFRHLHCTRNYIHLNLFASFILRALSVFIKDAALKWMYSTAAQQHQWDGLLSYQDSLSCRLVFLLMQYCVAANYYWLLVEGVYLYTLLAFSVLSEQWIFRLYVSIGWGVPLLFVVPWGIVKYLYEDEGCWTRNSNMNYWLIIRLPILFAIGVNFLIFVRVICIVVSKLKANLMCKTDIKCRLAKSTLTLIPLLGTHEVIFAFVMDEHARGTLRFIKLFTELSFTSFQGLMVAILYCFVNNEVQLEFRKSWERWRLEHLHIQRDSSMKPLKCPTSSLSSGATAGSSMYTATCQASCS", "assay": "In vitro cAMP activity in human GLP-1 receptor-expressing CHO cells (LANCE cAMP kit)", "type": "cell-based", "conditions": "long-acting conjugates (peptide-PEG-immunoglobulin Fc); relative titer from cAMP EC50, human GLP-1 receptor CHO cells", "procedure": "(§1) In order to measure the activity of the GLP-1/GIP dual agonist prepared in Example 1, an in vitro cell activity was measured using cell lines transformed with the GLP-1 receptor and the GIP receptor, respectively. The cell lines are transformed to express human GLP-1 and human GIP receptor genes in Chinese hamster ovary (CHO), respectively, and are suitable for measuring the activities of GLP-1 and GIP. Therefore, the activity for each part was measured using each transformed cell line.\nTo measure the GLP-1 activity of the dual agonist prepared in Example 1, human GLP-1 was diluted from 50 nM to 0.000048 nM by 4-fold serial dilution, and the dual agonist prepared in Example 1 was diluted from 50 nM to 0.000048 nM by 4-fold serial dilution. The culture medium was removed from the cultured human GLP-1 receptor-expressing CHO cells, 5 μl of each of the serially diluted materials was added to the cells, and then 5 μl of buffer containing cAMP antibody was added to the cells, followed by 15 minutes of incubation at room temperature. Then, cells were lysed by adding 10 μl of detection mix containing cell lysis buffer, and reacted at room temperature for 90 minutes. The cell lysate after the reaction had been completed, was applied to the LANCE cAMP kit (PerkinElmer, USA) to calculate the EC50 value through the accumulated cAMP, and then compared with each other.\n(§2) In order to measure the activity of the long-acting conjugate of SEQ ID NOs: 20, 36, and 40 prepared in Example 3, the cell activity in vitro was measured using cell lines transformed with the GLP-1 receptor and the GIP receptor, respectively, in the same manner as in Example 2.\n(§3) The cell lines were transformed to express the human GLP-1 receptor and the human GIP receptor genes in Chinese hamster ovary (CHO), respectively, and were each the same cell line used in Example 2. Activity for each part was measured using each transformed cell line. […]"}, "[2]": {"molecular_target": "T2, human GIP receptor (Homo sapiens, UniProt P48546)", "T2 construct": "expressed in transfected cells; host or cells: Chinese hamster ovary (CHO)", "T2 sequence (P48546 22-466)": "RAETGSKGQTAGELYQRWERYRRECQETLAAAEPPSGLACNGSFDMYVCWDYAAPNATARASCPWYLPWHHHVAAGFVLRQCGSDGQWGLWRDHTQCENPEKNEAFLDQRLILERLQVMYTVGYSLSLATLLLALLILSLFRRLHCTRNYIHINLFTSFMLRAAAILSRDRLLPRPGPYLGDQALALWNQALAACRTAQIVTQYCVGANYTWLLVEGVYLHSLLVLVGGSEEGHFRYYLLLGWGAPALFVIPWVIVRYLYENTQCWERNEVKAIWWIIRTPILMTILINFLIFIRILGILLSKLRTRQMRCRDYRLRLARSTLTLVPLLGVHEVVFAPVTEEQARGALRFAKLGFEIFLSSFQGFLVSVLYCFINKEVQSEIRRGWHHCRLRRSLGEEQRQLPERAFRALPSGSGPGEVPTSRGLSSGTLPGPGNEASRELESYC", "assay": "In vitro cAMP activity in human GIP receptor-expressing CHO cells (LANCE cAMP kit)", "type": "cell-based", "conditions": "long-acting conjugates (peptide-PEG-immunoglobulin Fc); relative titer from cAMP EC50, human GIP receptor CHO cells", "procedure": "as §1\nTo measure the GIP activity of the dual agonist prepared in Example 1, human GIP was diluted from 50 nM to […] by 4-fold serial dilution, and the dual agonist prepared in Example 1 was diluted from 50 nM to 0.000048 nM by 4-fold serial dilution. The culture medium was removed from the cultured human GIP receptor-expressing CHO cells, 5 μl of each of the serially diluted materials was added to the cells, and then 5 μl of buffer containing cAMP antibody was added to the cells, followed by 15 minutes of incubation at room temperature. Then, cells were lysed by adding 10 μl of detection mix containing cell lysis buffer, and reacted at room temperature for 90 minutes. The cell lysate after the reaction had been completed, was applied to the LANCE cAMP kit (PerkinElmer, USA) to calculate the EC50 value through the accumulated cAMP, and then compared with each other.\nas §2, §3"}},
  "note": "Square brackets hold non-standard residues; d marks the D form. Ends that are not written are not given here. Aib = CC(C)(N)C(=O)O",
  "data": [
    {"substance": "20 (Y[Aib]EGTFTSDYSI[Aib]LDKQAA[Aib]AFVQWLIAGGPSSGAPPPSC) [compound 20]", "values": [
      {"measurement": "In vitro activity compared to native peptide (%) vs human GLP-1", "setting": "[1]", "result": 7.5, "unit": "%"},
      {"measurement": "In vitro activity compared to native peptide (%) vs human GIP", "setting": "[2]", "result": 62.1, "unit": "%"}
    ]},
    {"substance": "36 (Y[Aib]EGTFTSDYSI[Aib]LDKQAQQAFVQWLIAGGPSSGAPPPSC) [compound 36]", "values": [
      {"measurement": "In vitro activity compared to native peptide (%) vs human GLP-1", "setting": "[1]", "result": 3.9, "unit": "%"},
      {"measurement": "In vitro activity compared to native peptide (%) vs human GIP", "setting": "[2]", "result": 26.9, "unit": "%"}
    ]},
    {"substance": "40 (Y[Aib]EGTFTSDYSIALEKQAQRDFVNWLLAGGPSSGAPPPSC) [compound 40]", "values": [
      {"measurement": "In vitro activity compared to native peptide (%) vs human GLP-1", "setting": "[1]", "result": 10.1, "unit": "%"},
      {"measurement": "In vitro activity compared to native peptide (%) vs human GIP", "setting": "[2]", "result": 24.7, "unit": "%"}
    ]}
  ]
}
